# Earlier results, collected in publication PMC6258349.
# Read-outs that look alike come from different tables or passages of the source.
# What was measured:
# [1] = molecular target: chaperone-adhesin FimC-FimH (Escherichia coli) (UniProt P31697)
# [2] = molecular target: chaperone-adhesin FimC-FimH (Escherichia coli) (UniProt P31697); remark: listed apart in the source
# UniProt P31697, sequence (P31697 37-241, chain 1 of 2): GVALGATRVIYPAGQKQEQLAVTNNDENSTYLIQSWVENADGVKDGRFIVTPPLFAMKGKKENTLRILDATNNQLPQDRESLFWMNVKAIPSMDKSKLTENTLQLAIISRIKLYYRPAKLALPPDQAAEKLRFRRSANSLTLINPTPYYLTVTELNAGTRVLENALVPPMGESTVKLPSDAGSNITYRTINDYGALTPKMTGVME
# UniProt P31697, sequence (P08191 22-300, chain 2 of 2, further chain): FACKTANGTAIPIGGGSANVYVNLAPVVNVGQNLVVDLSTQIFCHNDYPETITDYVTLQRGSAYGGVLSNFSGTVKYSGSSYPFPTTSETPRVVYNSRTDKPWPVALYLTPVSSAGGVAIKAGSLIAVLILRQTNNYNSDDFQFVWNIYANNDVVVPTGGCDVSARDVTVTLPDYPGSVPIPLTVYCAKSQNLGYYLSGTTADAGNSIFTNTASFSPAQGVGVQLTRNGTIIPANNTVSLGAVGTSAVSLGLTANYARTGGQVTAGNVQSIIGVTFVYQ
Kd [1],Kd [2],Substance
389 nM,–,FimD usher NTD (from UniProt P30130)
–,40 nM,FimD usher CTD (from UniProt P30130)
